Laboratory results published in patent publication US20240002543A1 (MARENGO THERAPEUTICS, published 2024).

T1: cynomolgus CD3e (cynomolgus, UniProt Q95LI5 22-117)
T1 chain: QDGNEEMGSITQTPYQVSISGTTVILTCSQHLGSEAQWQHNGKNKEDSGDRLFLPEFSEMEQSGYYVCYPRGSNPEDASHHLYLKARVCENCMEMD

T2: cynomolgus CD3e (cynomolgus, UniProt Q95LI5 22-117, limits assumed)
T2 construct: also called cCD3e; cyno CD3e
T2 sequence (looked up): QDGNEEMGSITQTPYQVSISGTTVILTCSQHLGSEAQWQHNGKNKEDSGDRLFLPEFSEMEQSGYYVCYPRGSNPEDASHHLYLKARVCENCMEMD

T3: Human CD3e (Acro Biosystems CDE-H5223) (human, UniProt P07766 23-126)
T3 chain: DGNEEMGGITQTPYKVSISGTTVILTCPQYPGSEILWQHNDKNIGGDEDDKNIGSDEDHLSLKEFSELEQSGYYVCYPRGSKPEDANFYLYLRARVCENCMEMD


What was measured:
[1] = biological target: T1, cynomolgus CD3e; assay: SPR
[2] = biological target: T2, cynomolgus CD3e; assay: SPR (Biacore T200), antibody captured via anti-human Fc, CD3e as analyte, 1:1 model
Method: (§1) In this example, exemplary humanized anti-CD3 antibody molecules BKM0020, BKM0025, BKM0028, BKM0038 (as described herein) were tested for their binding affinity to human or cynomolgus CD3e using surface plasmon resonance (SPR). SPR measurements were performed by using the BIAcore T200. Each construct was immobilized on a CM5 chip via Anti-human Fc antibody to a response of 200 RU. Human CD3e (Acro Biosystems CDE-H5223) was diluted to 500 nM and then diluted two-fold. Each analyte concentration was injected at a flow rate of 20 μl/min over the surface on which each antibody was immobilized. The data was fit using a 1:1 binding model. Affinity to human CD3e was preserved compared to the parental and affinity to cyno CD3e was two to three-fold lower compared to the parental antibody.

[3] = biological target: T4, Human CD3e (Acro Biosystems CDE-H5223) (human, UniProt P07766 23-126); assay: as above
T4 construct: Analyte in SPR; also called huCD3e
Method: as §1

[4] = biological target: T3, Human CD3e (Acro Biosystems CDE-H5223); assay: SPR
[5] = biological target: T5, human CD3e on Jurkat cells (human, UniProt P07766 23-207); assay: flow cytometry (FACS) on Jurkat cells, 3-fold dilutions from 10 ug/ml, anti-human IgG AF647
T5 construct: whole, on cells; also called huCD3e; CD3 expressed on Jurkat cells
Method: Binding of the exemplary humanized anti-CD3 antibodies to CD3-expressing Jurkat cells was performed using FACS. Antibodies were tested in a series of 3-fold dilutions starting with 10 ug/ml concentration and detected using anti-human IgG secondary antibodies conjugated to AF647.

Kd [1] | binding result [2] | binding result [3] | Kd [4] | binding result [5] | Binder
18.3 nM | binds | binds | – | – | BKM0025 (humanized anti-CD3 antibody molecule) (antibody, V domains shown, Captured via anti-human Fc antibody in SPR; constant regions not tied) VH: QVQLVQSGAEVKKPGASVKVSCKASGYTFTTYWMHWVRQAPGQGLEWMGNFNPNNGDTNYNEKFKTRVTMTVDKSTSTAYMELRSLRSDDMAVYYCARDDYGRYYFDYWGQGTLVTVSS VL: EIVMTQSPATLSLSPGERATLSCKSSQSLLNSRTRKNYLAWYQQKPGLAPRLLIYWAFTRESGIPDRFSGSGSGTDFTLTISRLEPEDFAVYYCKQSFILRTFGGGTKVEIK
9.98 nM | binds | binds | 6.34 nM | binds | BKM0020 (humanized anti-CD3 antibody molecule) (antibody, V domains shown, Captured via anti-human Fc antibody in SPR, so it carries a human Fc; constant regions not tied) VH: QVQLVQSGAEVKKPGASVKVSCKASGYTFTTYWMHWVRQAPGQGLEWMGNFNPNNGDTNYNEKFKTRVTMTVDKSTSTAYMELRSLRSDDMAVYYCARDDYGRYYFDYWGQGTLVTVSS VL: DIQMTQSPSTLSASVGDRVTITCKSSQSLLNSRTRKNYLAWYQQKPGKAPKLLIYWAFTRESGVPSRFSGSGSGTEFTLTISSLQPDDFATYYCKQSFILRTFGGGTKVEIK
14.1 nM | binds | binds | 4.72 nM | – | BKM0028 (humanized anti-CD3 antibody molecule) (antibody, V domains shown, Captured via anti-human Fc antibody in SPR; constant regions not tied) VH: QVQLVQSGAEVKKPGASVKVSCKASGYTFTTYWMHWVRQAPGKGLEWMGNFNPNNGDTNYNEKFKTRVTMTVDKSTSTAYMELSSLRSEDTAVYYCARDDYGRYYFDYWGQGTLVTVSS VL: EIVMTQSPATLSLSPGERATLSCKSSQSLLNSRTRKNYLAWYQQKPGLAPRLLIYWAFTRESGIPDRFSGSGSGTDFTLTISRLEPEDFAVYYCKQSFILRTFGGGTKVEIK
14.1 nM | binds | binds | 6.47 nM | – | BKM0038 (humanized anti-CD3 antibody molecule) (antibody, V domains shown, Captured via anti-human Fc antibody in SPR; constant regions not tied) VH: QVQLVQSGAEVKKPGASVKVSCKASGYTFTTYWMHWVRQAPGKGLEWMGNFNPNNGDTNYNEKFKTRVTMTVDKSTSTAYMELSSLRSEDTAVYYCARDDYGRYYFDYWGQGTLVTVSS VL: DIQMTQSPSSLSASVGDRVTITCKSSQSLLNSRTRKNYLAWYQQKPGKAPKLLIYWAFTRESGVPSRFSGSGSGTDFTLTISSLQPEDFATYYCKQSFILRTFGGGTKVEIK
